Experimental data published in the RNAGym collection of RNA variant scans (doi:10.1073/pnas.2313332121).
Fewer inactive variants are shown than the library holds.

B1: TPR 5TU (parent)
chain: GGAUCUUCUCGAUCUAACAAAAAAGACAAAUCUGCCACAAAGCUUGAGAGCAUCUUCGGAUGCAGAGGCGGCAGCCUUCGGUGGCGCGAUAGCGCCAACGUUCUCAACUAUGACACGCAAAACGCGUGCUCCGUUGAAUGGAGUUUAUCAUG

Variants of: B1
Assay: polymerase ribozyme fitness, log enrichment relative to wild type (log ratio); higher = more active; in vitro selection for triplet polymerase activity
Outline: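 Mutant libraries for each subunit of a heterodimeric triplet polymerase ribozyme were made by PCR and then transcribed. Each library underwent one round of in vitro selection in triplicate: annealing with a biotinylated primer, the partner subunit and triplets, frozen incubation at −7 °C, gel excision of extended constructs, streptavidin-bead capture and RT-PCR. Input and output libraries were Illumina-sequenced, and only genotypes with ≥10 input reads and ≥1 read per output were kept. Fitness is the logarithm, base 2, of genotype enrichment over wild-type enrichment, computed from inverse-variance-weighted replicate averages.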

Point of comparison: C5A A26U C35G A39U C76U C85U C118U A119C, “polymerase ribozyme fitness (log ratio)” value -4.09. Against it:
- U6C C18U G59C A66U A73C U101G U139C U144A — lower, ≤ -4.2
- C5U U9C A29C C93U C103U G126U — lower, ≤ -4.2
- C5U A22C G83C C93U U101G C116A — higher, -2.06
- C5G C99A — higher, -0.989
- C5G A23G A49U U77G G86A A137G — lower, ≤ -4.2
- U6A C14G G34A C87U C105U U145G — within 0.2 log units, -4.05
- C5A A20C C96U — higher, -0.294
- U4G A73G A97G — higher, 0.0284
- U4G C57A A73G C87U — higher, -0.214
- U4C A60U G74A C93U A106U A107U A150C — lower, ≤ -4.2
- C5A C14G A19G C36A U102G C132G — lower, ≤ -4.2
- C5G C8U A12U C27G G59C A66G U78C U101A C125G C131A U139C — within 0.2 log units, -3.97
- U4A U6A A17U A30U C105U U134G — lower, ≤ -4.2
- C5A C76U G84U C125U G141U — higher, -3.64
- C5A C27U U55G G83A G92U U148A — lower, ≤ -4.2
- U6A A60C A142G — higher, -3.03
- C5A G11C C32G G92U C99A C125G G136U G141U — lower, ≤ -4.2
- C5G U6G U7G C14G A28C A30C G50C C51G A89G C93G G94U C105U C116U G143U — lower, ≤ -4.2
- C5U A23G C32A C57G G59A C87G C95A U134C — lower, ≤ -4.2
- U6A A29U G81A G92C C114U — lower, ≤ -4.2
- C5A A66G C96U A115G U139G G140A — lower, ≤ -4.2
- U4G A12U A39C G62A C76U C87G A91U — lower, ≤ -4.2
- C5A U6G G46A U56A U82C C93A A107G C125U G136U — lower, ≤ -4.2
- C5U U82A C103G A113U A137C U148A — lower, ≤ -4.2
- C5G U7A C93U A106C — higher, -3.03
- C5G A23C G68C G81C G83C U101G C118U G141U — lower, ≤ -4.2
- C5U G46A A52G C85U A107U C118A A137U — lower, ≤ -4.2
- U6C A24U A28C C35U A37U U90G C93A C131U U145C — lower, ≤ -4.2
- C5U U56A C57A C85G — higher, -0.724
- C5G A12G G83A G94A G141C — within 0.2 log units, -4.19
- C5A G11C C85U A119C C131G G141C — higher, 0.451
- U6A G50C C57A G83U C87A G94A — lower, ≤ -4.2
- U6A G83C A89U G136U A137G — higher, -3.78
- C5U A17G A49G U53G C85A A122C G141C — lower, ≤ -4.2
- C5G C54A G58C A73G C79A C87U C116A A138G — lower, ≤ -4.2
- C5U C105U A138U — lower, ≤ -4.2
- C5G C10G A26C C93U A106G G140U — lower, ≤ -4.2
- U6A C14U U82C G86A — the same, -4.09
- U4G A41U G50C C85G — lower, ≤ -4.2
- U4A C76G A91U A115U — lower, ≤ -4.2
- U6A A28G G59A C93U C99G C108A G140A G141U — lower, ≤ -4.2
- C5A C72U C85U C95U — higher, -0.0103
- C5A C85U A97U G143A — higher, -1.87
- C5U A66G C87U — lower, ≤ -4.2
- U6A U53A G86A A91C G128C — lower, ≤ -4.2
- C5A A20U C35U A91C U101A C105G U145G — lower, ≤ -4.2
- U4G A24C G84U G86U C108U A122G U151C — lower, ≤ -4.2
- C5U A47C G59A C87U C93U — higher, -3.16
- C5A C54U A73G A119G G136A — higher, -0.371
- C5A C27A C87A U109A G126A — lower, ≤ -4.2
- C5G U55G C79G C85U U130G — lower, ≤ -4.2
- U4A U6G A22U U31G C35U U56A G68C C95U C125G U144C — lower, ≤ -4.2
- U6A A28G A73G C93G C99A C131A — within 0.2 log units, -4.19
- U4C U9A A41C G48C C51A G68A G83C — lower, ≤ -4.2
- C5G C32A C57U C99U — lower, ≤ -4.2
- U6A A20C U31C C96A U127C — higher, -1.86
- U4G C35G C95G U134A G136U — within 0.2 log units, -4.16
- U6A A19C A24U A28G G141C G152A — within 0.2 log units, -3.96
- C5A A21C G74A U82G G92U — lower, ≤ -4.2
- C5A C36U C79U A121G — lower, ≤ -4.2
- C5A G94U C95A C123A U135C — higher, -3.89
- C5G C32A C76A U109G G141C — lower, ≤ -4.2
- C5A C35A U55A A91G G100U G126A A147G — lower, ≤ -4.2
- C5U A20U C57U G68A C72U G92A — lower, ≤ -4.2
- U6C C57U G83U G84U A121U — higher, -3.18
- C5U A23U A24C G46A C96U A137U — lower, ≤ -4.2
- C5U A16C A17U C27U A49C U55G — lower, ≤ -4.2
- U6A C57G C96U G141C — higher, -0.945
- U6C C14G A40C A52U A91U — lower, ≤ -4.2
- U6C A19U A60C C87A A91U U134G — lower, ≤ -4.2
- U4C C38G G59A U61A U148C — lower, ≤ -4.2
- C5G U90G C93A C116G A142C — lower, ≤ -4.2
- U4G A73C G92C — within 0.2 log units, -4.15
- C5A C93G — higher, -2.32
- C5A A16C A19U U61A — higher, -2.61
- C5A C99U — higher, -0.267
- U6A G50C A52C — lower, ≤ -4.2
- C5U C18U C76G C105U U148A — lower, ≤ -4.2
- U4C C14U G42A G84A C105G — lower, ≤ -4.2
- U4C A21G G42A G48C G50C A64U G84C U102G U127A — lower, ≤ -4.2
- U4G C35A C79A G94A U148G — lower, ≤ -4.2
- C5A G25C A41C C85U A89C A115G C132G U146C U148G — lower, ≤ -4.2
- U6A A20G U56A G88U U102A C103G C132A U146G — lower, ≤ -4.2
